The values below come from article PMC5622320 (Nucleic Acids Research, 2017).

For the experiment, the target named is T1, stFlhD4C2 (Salmonella typhimurium, UniProt P0A2R2;O52222).
T1 sequence 1: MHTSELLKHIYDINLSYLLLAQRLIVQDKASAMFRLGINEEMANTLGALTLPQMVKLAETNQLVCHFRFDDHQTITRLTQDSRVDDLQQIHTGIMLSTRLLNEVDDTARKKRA
T1 sequence 2: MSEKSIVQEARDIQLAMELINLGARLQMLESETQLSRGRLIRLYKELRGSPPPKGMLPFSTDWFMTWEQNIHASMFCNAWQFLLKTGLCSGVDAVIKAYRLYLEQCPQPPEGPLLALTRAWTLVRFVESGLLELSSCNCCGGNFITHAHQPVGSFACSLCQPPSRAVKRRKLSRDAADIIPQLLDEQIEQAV
Put plainly: native gel or EMSA. For orientation: In EMSA bound probe runs differently from free probe, usually more slowly.

B1: YdiV (natural protein)
chain: MKIFLENLYHSDCYFLPIRDNQQVLVGVELITHFSSEDGTVRIPTSRVIAQLTEEQHWQLFSEQLELLKSCQHFFIQHKLFAWLNLTPQVATLLLERDNYAGELLKYPFIELLINENYPHLNEGKDNRGLLSLSQVYPLVLGNLGAGNSTMKAVFDGLFTRVMLDKSFIQQQITHRSFEPFIRAIQAQISPCCNCIIAGGIDTAEILAQITPFDFHALQGCLWPAVPINQITTLVQR
As for B1, the binding result was “binds”.
